According to PMC7810988, “Inositol pyrophosphates promote the interaction of SPX domains with the coiled-coil motif of PHR transcription factors to regulate plant phosphate homeostasis” (Nature Communications, 2019):

Target: the molecule itself
Experiment: SEC-RALS; size-exclusion chromatography with right-angle light scattering; 50 µL of 2–10 mg/mL protein, 20 mM HEPES pH 7.5, 150 mM NaCl, Superdex 200 increase 10/300 GL, 25 °C

B1: AtPHR1^280–360 KHR/A (domain or fragment)
chain: not shown
notes: AtPHR1, Arabidopsis thaliana, residues 280-360, KHR motif mutated to alanine; not shown: 6xHis, N-terminal, cleaved
  binding result: binds

B2: wild-type AtPHR1^222–358 (domain or fragment)
chain: not shown
notes: AtPHR1, Arabidopsis thaliana, residues 222-358 (MYB and CC domains only); also called AtPHR1 MYB-CC; untagged AtPHR1^222–358; not shown: 6xHis, N-terminal, cleaved
  stoichiometry N: 2

B3: full-length OsPHR2 (OsPHR2^1-426, wild type) (natural protein)
chain: not shown
notes: OsPHR2, rice MYB-CC transcription factor, residues 1-426, called full-length; also called wild-type OsPHR2; not shown: 8xHis, N-terminal, cleaved; Strep, N-terminal, cleaved; GB1, N-terminal, cleaved
  stoichiometry N: 4

B4: wild-type AtPHR1^280–360 (pMH-HT construct) (domain or fragment)
chain: not shown
notes: AtPHR1, Arabidopsis thaliana, residues 280-360 (coiled-coil domain); also called AtPHR1 CC; AtPHR^280–360; not shown: 6xHis, N-terminal, cleaved
  stoichiometry N: 4
